The target in assay [1] is FcγRII (CD32) expressed on Raji cells. Kind of assay: cell-based or functional assay.
In assay [2] the target is human CTLA4 expressed on Jurkat T cells (CTLA4 effector cells) (human) (UniProt P16410). Nature of the assay: cell-based or functional assay.

“And” between values parts separate entries of the source, which are not always exact repeats. Equal values may be shown once.

Sequence of human CTLA4 expressed on Jurkat T cells (CTLA4 effector cells) (human) (P16410 36-223): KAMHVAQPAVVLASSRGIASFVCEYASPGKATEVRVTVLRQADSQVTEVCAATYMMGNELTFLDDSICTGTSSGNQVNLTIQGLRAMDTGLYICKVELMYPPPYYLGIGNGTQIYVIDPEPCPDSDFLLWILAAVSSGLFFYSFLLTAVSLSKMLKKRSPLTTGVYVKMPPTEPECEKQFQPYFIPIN
Sequence of L3D10 (BioLegend anti-CTLA4 antibody) (heavy): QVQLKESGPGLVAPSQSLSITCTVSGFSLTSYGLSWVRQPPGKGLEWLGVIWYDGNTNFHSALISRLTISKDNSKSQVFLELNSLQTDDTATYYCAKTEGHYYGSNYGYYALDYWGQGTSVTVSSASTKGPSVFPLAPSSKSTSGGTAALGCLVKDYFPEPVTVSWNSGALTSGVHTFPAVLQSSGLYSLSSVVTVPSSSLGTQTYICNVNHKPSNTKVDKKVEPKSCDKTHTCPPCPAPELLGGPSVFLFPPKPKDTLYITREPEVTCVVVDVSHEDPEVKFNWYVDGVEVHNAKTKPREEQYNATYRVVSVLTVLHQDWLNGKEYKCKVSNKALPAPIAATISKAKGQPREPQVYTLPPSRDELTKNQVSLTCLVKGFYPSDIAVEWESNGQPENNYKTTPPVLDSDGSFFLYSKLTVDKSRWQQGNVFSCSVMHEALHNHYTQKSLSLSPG
Sequence of L3D10 (BioLegend anti-CTLA4 antibody) (light): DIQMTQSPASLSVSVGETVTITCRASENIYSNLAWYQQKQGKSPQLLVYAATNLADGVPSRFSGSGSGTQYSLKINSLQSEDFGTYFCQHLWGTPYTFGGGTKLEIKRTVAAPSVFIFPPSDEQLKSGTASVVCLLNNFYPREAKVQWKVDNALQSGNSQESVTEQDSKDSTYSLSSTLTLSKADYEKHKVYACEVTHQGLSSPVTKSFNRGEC

“ipilimumab (Selleckchem, Cat. No. A2001) (antibody)”: in assay [1], the RLU ratio of the CTLA4 blockade assay with anti-CD32 antibody at 10 µg per ml turned out to be 50% and the activity in the CTLA4 blockade assay with anti-CD32 antibody is 50%.
As for L3D10 (BioLegend anti-CTLA4 antibody), in assay [2], the RLU ratio, Promega CTLA4 Blockade Bioassay (luciferase readout) is 10 and 15; the half max activity concentration, CTLA4 Blockade Bioassay (luciferase or IL-2 readout) turned out to be 50 nM. Moreover, the RLU ratio of the CTLA4 blockade assay with anti-CD32 antibody at 10 µg per ml in assay [1] came out at 50%.

Values taken from patent publication US20250282870A1.
